{"source": "IntAct's records for PubMed 27178753", "parents": {"B1": {"name": "Focal adhesion kinase 1 (Homo sapiens), Q05397 (parent)", "chain": "MAAAYLDPNLNHTPNSSTKTHLGTGMERSPGAMERVLKVFHYFESNSEPTTWASIIRHGDATDVRGIIQKIVDSHKVKHVACYGFRLSHLRSEEVHWLHVDMGVSSVREKYELAHPPEEWKYELRIRYLPKGFLNQFTEDKPTLNFFYQQVKSDYMLEIADQVDQEIALKLGCLEIRRSYWEMRGNALEKKSNYEVLEKDVGLKRFFPKSLLDSVKAKTLRKLIQQTFRQFANLNREESILKFFEILSPVYRFDKECFKCALGSSWIISVELAIGPEEGISYLTDKGCNPTHLADFTQVQTIQYSNSEDKDRKGMLQLKIAGAPEPLTVTAPSLTIAENMADLIDGYCRLVNGTSQSFIIRPQKEGERALPSIPKLANSEKQGMRTHAVSVSETDDYAEIIDEEDTYTMPSTRDYEIQRERIELGRCIGEGQFGDVHQGIYMSPENPALAVAIKTCKNCTSDSVREKFLQEALTMRQFDHPHIVKLIGVITENPVWIIMELCTLGELRSFLQVRKYSLDLASLILYAYQLSTALAYLESKRFVHRDIAARNVLVSSNDCVKLGDFGLSRYMEDSTYYKASKGKLPIKWMAPESINFRRFTSASDVWMFGVCMWEILMHGVKPFQGVKNNDVIGRIENGERLPMPPNCPPTLYSLMTKCWAYDPSRRPRFTELKAQLSTILEEEKAQQEERMRMESRRQATVSWDSGGSDEAPPKPSRPGYPSPRSSEGFYPSPQHMVQTNHYQVSGYPGSHGITAMAGSIYPGQASLLDQTDSWNHRPQEIAMWQPNVEDSTVLDLRGIGQVLPTHLMEERLIRQQQEMEEDQRWLEKEERFLKPDVRLSRGSIDREDGSLQGPIGNQHIYQPVGKPDPAAPPKKPPRPGAPGHLGSLASLSSPADSYNEGVKLQPQEISPPPTANLDRSNDKVYENVTGLVKAVIEMSSKIQPAPPEEYVPMVKEVGLALRTLLATVDETIPLLPASTHREIEMAQKLLNSDLGELINKMKLAQQYVMTSLQQEYKKQMLTAAHALAVDAKNLLDVIDQARLKMLGQTRPH"}}, "data": [{"variants_of": "B1", "conditions": "with itb4_human ITGB4, P16144", "values": [{"variant": "R385A;T386A", "effect of a mutation on the interaction": "decreasing interaction"}]}, {"variants_of": "B1", "conditions": "with itb4_human ITGB4, P16144", "remark": "another data set of the same source", "values": [{"variant": "E380A;K381A;Q382A", "effect of a mutation on the interaction": "disrupting interaction"}]}]}
